Data: patent publication US20180086841A1 (Merck Sharp & Dohme, published 2018)
Substitutions are numbered along the chain they refer to.

Experiments:
Assay in all cases: flow cytometry on CHO-K1 transfectants;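 further: Anti-hCD27 antibodies tested on transiently transfected CHO-K1 cells bearing hCD27 alanine mutants, 30 min at 4 °C primary incubation, FITC readout excluding debris, dead cells and doublets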
R37A = molecular target: T1, R37A
T1 construct: also called hCD27 R37A
T1 receptor chain: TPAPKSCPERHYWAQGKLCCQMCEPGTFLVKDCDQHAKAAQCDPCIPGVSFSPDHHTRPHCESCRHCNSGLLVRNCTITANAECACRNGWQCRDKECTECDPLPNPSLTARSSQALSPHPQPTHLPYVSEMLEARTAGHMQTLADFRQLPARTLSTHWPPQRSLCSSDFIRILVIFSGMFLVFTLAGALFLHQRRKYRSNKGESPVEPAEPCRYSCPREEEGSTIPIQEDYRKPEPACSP
Experimental: (§1) The hCD27 variants that were tested are listed. Amino acids correspond to the UniProt P26842-1 sequence. Amino acids 1-20 constitute the signal peptide. Binding is expressed as the geometric mean of the FITC signal, relative to antibody binding to hCD27, which was set at 100%.
(§2) The ability of several anti-hCD27 antibodies to bind to a series of hCD27 alanine mutants was determined using CHO-K1 cells, transiently transfected pCI-neo empty vector, pCI-neo.hCD27 and several pCI-neo.CD27Ala mutant constructs.
(§3) Detached cells were transferred to 96 wells round-bottomed well plates at approximately 1.2×10⁵ cells/well. After spinning down the cells, discarding the supernatants and re-suspending the cells in the residual volume, the primary antibodies were added and incubated for 30 minutes at 4° C. Cells were washed three times with DPBS/BSA 1%, followed by centrifugation, discarding of the supernatants and re-suspension in the residual volume. […] After washing once, antibody binding was detected using the HTS plate reader (FACS Canto II) and FlowJo software for data analysis. Debris, dead cells and doublets were excluded from the analysis. Binding was expressed as the geometric mean of the FITC signal, relative to antibody binding to hCD27, which was set at 100%.

R93A = molecular target: T2, R93A
T2 construct: also called hCD27 R93A
T2 receptor chain: T1 receptor chain with A37R, R93A
Experimental: as §1, §2, §3

V30A = molecular target: T3, V30A
T3 construct: also called hCD27 V30A
T3 receptor chain: T1 receptor chain with V30A, A37R
Experimental: as §1, §2, §3

R10A = molecular target: T4, R10A
T4 construct: also called hCD27 R10A
T4 receptor chain: T1 receptor chain with R10A, A37R
Experimental: as §1, §2, §3

H36A = molecular target: T5, H36A
T5 construct: also called hCD27 H36A
T5 receptor chain: T1 receptor chain with H36A, A37R
Experimental: as §1, §2, §3

I46A = molecular target: T6, I46A
T6 construct: also called hCD27 I46A
T6 receptor chain: T1 receptor chain with A37R, I46A
Experimental: as §1, §2, §3

H60A = molecular target: T7, H60A
T7 construct: also called hCD27 H60A
T7 receptor chain: T1 receptor chain with A37R, H60A
Experimental: as §1, §2, §3

F28A = molecular target: T8, F28A
T8 construct: also called hCD27 F28A
T8 receptor chain: T1 receptor chain with F28A, A37R
Experimental: as §1, §2, §3

W13A = molecular target: T9, W13A
T9 construct: also called hCD27 W13A
T9 receptor chain: T1 receptor chain with W13A, A37R
Experimental: as §1, §2, §3

K38A = molecular target: T10, K38A
T10 construct: also called hCD27 K38A
T10 receptor chain: T1 receptor chain with A37R, K38A
Experimental: as §1, §2, §3

- binding, WT hCD27 = 100 (GM FITC) (R37A): 106%
- binding, WT hCD27 = 100 (GM FITC) (R93A): 131%
- binding, WT hCD27 = 100 (GM FITC) (V30A): 82.6%
- binding, WT hCD27 = 100 (GM FITC) (R10A): 58.9%
- binding, WT hCD27 = 100 (GM FITC) (H36A): 122%
- binding, WT hCD27 = 100 (GM FITC) (I46A): 81.9%
- binding, WT hCD27 = 100 (GM FITC) (H60A): 82.6%
- binding, WT hCD27 = 100 (GM FITC) (F28A): 59.4%
- binding, WT hCD27 = 100 (GM FITC) (W13A): 71.4%
- binding, WT hCD27 = 100 (GM FITC) (K38A): 97.6%
B1: hCD27.15-6B (antibody, human IgG4 S228P, kappa, V domains shown)
VH: QVQLVQSGAEVKKPGASVKVSCKASGFIIKATYMHWVRQAPGQRLEWMGRIDPANGETKYDPKFQVRVTITADTSASTAYMELSSLRSEDTAVYYCARYAWYFDVWGQGTLVTVSS
VL: DIQMTQSPSSLSASVGDRVTITCRASENIYSFLAWYQQKPGKAPKLLIYHAKTLAEGVTSRFSGSGSGTDFTLTISSLQPEDSATYYCQHYYGSPLTFGQGTRLEIKR
notes: also called hCD27.15 (humanized 6B); humanized hCD27.15 (human IgG4, Clone 6B)
